Usually Kd stands for the equilibrium constant for the complex coming apart. Low readings indicate a tighter complex, high ones a looser complex.

Drawing on PMC9889962, this text covers Kd for 1 substance.

Test in all cases: SPR
On the technique in general: Surface plasmon resonance follows binding to a sensor surface in real time, without labels.

Test [1] addresses SARS-CoV-2 Omicron BA.2 spike protein trimer (SARS-CoV-2) (UniProt P0DTC2).
In test [2] the target is SARS-CoV-2 Omicron BQ.1.1 spike protein trimer (SARS-CoV-2) (UniProt P0DTC2).
Test [3] has as its target SARS-CoV-2 Omicron XBB.1 spike protein trimer (SARS-CoV-2) (UniProt P0DTC2).
For test [4], the target named is SARS-CoV-2 Omicron BA4.6 spike protein trimer (SARS-CoV-2) (UniProt P0DTC2).
Test [5] addresses SARS-CoV-2 Omicron BA.5 spike protein trimer (SARS-CoV-2) (UniProt P0DTC2).
In test [6] the target is SARS-CoV-2 Omicron BA2.75 spike protein trimer (SARS-CoV-2) (UniProt P0DTC2).

As for “LiVE-Longer YTE chimera (ACE-2 LVE/STR-YTE fusion protein) (from UniProt Q9BYF1 18-740) (Fc fusion)”, the equilibrium dissociation constant (Kd) came out at 0.078 pM in test [1]; 1.81 pM in test [2]; 215 pM in test [3]; 845 pM in test [4]; 5.43 pM in test [5]; 0.133 pM in test [6].
